Our source for the Kd values is article PMC2397485 (2008).

Assay in all cases: high-speed co-sedimentation
In one test the target is F-actin (act1-102) (Saccharomyces cerevisiae, UniProt P60010).
In a further test the target is F-actin (Saccharomyces cerevisiae, UniProt P60010).
Test [1] concerns the target F-actin (skeletal muscle) (Oryctolagus cuniculus, UniProt P68135).

B1: Scp1 (protein)
chain: SYDKKADVTSLDEDLRQLRESKFSPEAIQNIKIWVYKSVLKEIAPPGDLLECLKDGTVLCKLANILYEADTGEANHISWKSSKMPFVQMDQISQFLSFSRKYGVPEDELFQTIDLFEKKDPAIVFQTLKSLSRYANKKHTDRFPVLGPQLSTKKPRPPVKSKPKHLQDGTGWSTFEYGYMKGASQATEGVVLGQRRDIV
Take B1: the Kd with F-actin (act1-102) was found to be 7.9 µM; in the test with F-actin, 1.3 µM; in test [1] it was 2.1 µM.

B2: Scp1(1-180) 1-180 (protein)
chain: MSYDKKADVTSLDEDLRQLRESKFSPEAIQNIKIWVYKSVLKEIAPPGDLLECLKDGTVLCKLANILYEADTGEANHISWKSSKMPFVQMDQISQFLSFSRKYGVPEDELFQTIDLFEKKDPAIVFQTLKSLSRYANKKHTDRFPVLGPQLSTKKPRPPVKSKPKHLQDGTGWSTFEYGY
Molecule B2 came in with a Kd in test [1] of 7.1 µM.
